From patent US20140141415A1

Assays:
[1] = target: GFP 1-9 OPT (Aequorea victoria); experiment: split GFP complementation, sandwich format
[2] = target: sulfite reductase-GFP S11 wild type (Pyrobaculum aerophilum; Aequorea victoria); experiment: split GFP complementation in vitro, soluble lysate with excess purified fusion protein

Row | fold increase of complementation rate compared to the starting strand construct [1] [fold] | fold improvement of in vitro complementation relative to the same amount of refolded superfolder GFP 1-10 [2] [fold] | Substance
1 | 20 |  | (GFP S10 SM5)-L1-sulfite reductase-L2-(GFP S11 SM5)
2 |  | 80 | GFP 1-10 OPT
